Tests used:
DNMT1 (Homo sapiens) = DNMT1 (Homo sapiens) (UniProt P26358); conditions: cited from earlier work
[1] = molecular target: hUSP7 residues 561-1102 (human) (UniProt Q93009); test: ITC; 20 µM USP7(561-1102) in the cell titrated with 1.2 mM PAF15 at 293 K; 10 mM HEPES pH 7.5, 150 mM NaCl, 0.25 mM TCEP; one-site model

Sequence of UniProt P26358 (P26358 whole entry, the tested form may be a part): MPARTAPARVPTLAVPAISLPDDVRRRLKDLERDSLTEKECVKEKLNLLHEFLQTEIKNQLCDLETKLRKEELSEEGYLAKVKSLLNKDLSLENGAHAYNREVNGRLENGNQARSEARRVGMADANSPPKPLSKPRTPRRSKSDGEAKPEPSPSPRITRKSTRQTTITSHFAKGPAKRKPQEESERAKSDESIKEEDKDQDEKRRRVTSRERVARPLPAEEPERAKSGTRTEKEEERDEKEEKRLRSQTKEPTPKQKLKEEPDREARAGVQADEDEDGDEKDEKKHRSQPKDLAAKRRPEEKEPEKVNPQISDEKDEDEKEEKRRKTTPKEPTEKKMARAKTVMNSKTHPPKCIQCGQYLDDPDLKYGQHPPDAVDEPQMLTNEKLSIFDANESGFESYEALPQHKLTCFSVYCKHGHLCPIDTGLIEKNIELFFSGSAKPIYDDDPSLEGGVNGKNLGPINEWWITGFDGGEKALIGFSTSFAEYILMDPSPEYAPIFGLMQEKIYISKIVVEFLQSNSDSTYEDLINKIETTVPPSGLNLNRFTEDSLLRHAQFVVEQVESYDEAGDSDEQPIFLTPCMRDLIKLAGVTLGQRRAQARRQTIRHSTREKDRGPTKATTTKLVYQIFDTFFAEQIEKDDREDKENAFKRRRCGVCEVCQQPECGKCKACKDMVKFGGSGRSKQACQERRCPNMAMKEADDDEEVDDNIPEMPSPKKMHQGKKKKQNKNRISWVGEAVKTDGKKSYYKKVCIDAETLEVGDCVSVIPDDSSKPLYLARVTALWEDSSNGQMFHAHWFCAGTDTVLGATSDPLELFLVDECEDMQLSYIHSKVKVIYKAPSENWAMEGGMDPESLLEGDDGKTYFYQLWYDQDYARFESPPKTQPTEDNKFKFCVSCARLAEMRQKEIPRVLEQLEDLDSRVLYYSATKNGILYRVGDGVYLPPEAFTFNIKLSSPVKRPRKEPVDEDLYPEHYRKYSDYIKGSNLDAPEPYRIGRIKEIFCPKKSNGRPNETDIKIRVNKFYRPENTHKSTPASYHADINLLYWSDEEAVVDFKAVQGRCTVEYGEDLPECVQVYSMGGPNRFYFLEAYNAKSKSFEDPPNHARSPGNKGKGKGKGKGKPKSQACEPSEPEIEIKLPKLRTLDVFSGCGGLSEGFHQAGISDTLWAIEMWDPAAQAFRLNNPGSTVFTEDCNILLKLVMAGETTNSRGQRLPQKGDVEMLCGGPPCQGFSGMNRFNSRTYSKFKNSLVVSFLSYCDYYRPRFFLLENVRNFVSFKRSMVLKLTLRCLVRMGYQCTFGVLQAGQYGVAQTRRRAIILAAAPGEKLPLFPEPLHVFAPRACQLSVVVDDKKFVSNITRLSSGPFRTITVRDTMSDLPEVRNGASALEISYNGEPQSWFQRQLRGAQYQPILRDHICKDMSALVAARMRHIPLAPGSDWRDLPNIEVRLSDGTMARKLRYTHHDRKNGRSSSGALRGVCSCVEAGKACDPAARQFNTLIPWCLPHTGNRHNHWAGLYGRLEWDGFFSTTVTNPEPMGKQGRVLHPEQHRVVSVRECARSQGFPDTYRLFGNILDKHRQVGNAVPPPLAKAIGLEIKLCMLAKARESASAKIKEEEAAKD

| Substance | Kd (DNMT1 (Homo sapiens)) [µM] | Kd [1] [µM] |
| --- | --- | --- |
| USP7 561-1102 (from UniProt Q93009) | 0.6 |  |
| full-length hPAF15 wild-type, C-terminal FLAG tag (from UniProt Q15004 1-111) (natural protein) |  | 32.7 |
